The results in this text go back to the supplement of paper PMC10567573.

B1: SLC19A2 (parent)
chain: FHHIPSTCQRVNGIKVQNGGIVTD
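Further: lentivirally expressed fusions sorted by FACS into six bins by GFP to DsRed ratio, PSI derived from sequencing read proportions per bin multiplied by bin number.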

The variants in this series derive from B1. The series can be described thus: protein stability index of a GFP-peptide fusion (GPS, HEK-293T) (PSI 1-6); higher = more stable. The conditions noted are these: c terminus: a fixed tail appended.
For FQHIPSTCQRVNGIKVQNGGIVTD, the protein stability index amounted to 2.83.
Regarding FMHIPSTCQRVNGIKVQNGGIVTD, the protein stability index came out at 2.47.
In the case of FWHIPSTCQRVNGIKVQNGGIVTD, the protein stability index was found to be 3.
FRHIPSTCQRVNGIKVQNGGIVTD: the protein stability index stood at 2.61.
Then FIHIPSTCQRVNGIKVQNGGIVTD, with 2.04; and FDHIPSTCQRVNGIKVQNGGIVTD, with 3.31; and FHHIESTCQRVNGIKVQNGGIVTD, with 2.83.
Then FHHIGSTCQRVNGIKVQNGGIVTD, with 2.12; and FHHIKSTCQRVNGIKVQNGGIVTD, with 2.61; and FHHIVSTCQRVNGIKVQNGGIVTD, with 1.91.
With FHHIASTCQRVNGIKVQNGGIVTD, the protein stability index turned out to be 1.97.
Then FHHIDSTCQRVNGIKVQNGGIVTD, with 2.71; and FHHITSTCQRVNGIKVQNGGIVTD, with 2.67; and FHHISSTCQRVNGIKVQNGGIVTD, with 3.55.
On to FHHIHSTCQRVNGIKVQNGGIVTD, for which the protein stability index worked out at 1.79.
With FHHIRSTCQRVNGIKVQNGGIVTD the figure was 1.58.
Regarding FHHIISTCQRVNGIKVQNGGIVTD, the protein stability index amounted to 1.97.
In the case of FHHILSTCQRVNGIKVQNGGIVTD, the protein stability index was 1.86.
With FHHICSTCQRVNGIKVQNGGIVTD the figure was 1.86.
Then FHHIYSTCQRVNGIKVQNGGIVTD, with 2.33; and FHHIWSTCQRVNGIKVQNGGIVTD, with 2.91; and FHHIMSTCQRVNGIKVQNGGIVTD, with 2.23.
For the variant FHHINSTCQRVNGIKVQNGGIVTD, the protein stability index was determined as 2.11.
With FHHIQSTCQRVNGIKVQNGGIVTD the figure was 1.89; with FHHIPQTCQRVNGIKVQNGGIVTD, 2.32.
For FHHIPTTCQRVNGIKVQNGGIVTD, the protein stability index was 1.6.
Then FHHIPPTCQRVNGIKVQNGGIVTD, with 1.82; and FHHIPLTCQRVNGIKVQNGGIVTD, with 2.36.
As for FHHIPHTCQRVNGIKVQNGGIVTD, the protein stability index worked out at 2.02.
As to FHHIPATCQRVNGIKVQNGGIVTD, the protein stability index was determined as 2.17.
As to FHHIPRTCQRVNGIKVQNGGIVTD, the protein stability index is 1.9.
With FHHIPKTCQRVNGIKVQNGGIVTD the figure was 1.86; with FHHIPYTCQRVNGIKVQNGGIVTD, 2.01; with FHHIPDTCQRVNGIKVQNGGIVTD, 2.28.
Then FHHIPCTCQRVNGIKVQNGGIVTD, with 2.27.
Then FHHIPFTCQRVNGIKVQNGGIVTD, with 2.69; and FHHIPWTCQRVNGIKVQNGGIVTD, with 3.58.
In the case of FHHIPVTCQRVNGIKVQNGGIVTD, the protein stability index worked out at 2.07.
For the variant FHHIPITCQRVNGIKVQNGGIVTD, the protein stability index turned out to be 1.71.
For FHHIPMTCQRVNGIKVQNGGIVTD, the protein stability index turned out to be 1.92.
Then FHHIPNTCQRVNGIKVQNGGIVTD, with 1.6; and FHHIPETCQRVNGIKVQNGGIVTD, with 2.22.
Take FHHIPGTCQRVNGIKVQNGGIVTD: the protein stability index was found to be 1.93.
As for FHHIPSKCQRVNGIKVQNGGIVTD, the protein stability index is 2.23.
Then FHHIPSRCQRVNGIKVQNGGIVTD, with 1.77.
In the case of FHHIPSNCQRVNGIKVQNGGIVTD, the protein stability index amounted to 2.42.
Then FHHIPSFCQRVNGIKVQNGGIVTD, with 3.29.
Take FHHIPSPCQRVNGIKVQNGGIVTD: the protein stability index worked out at 1.91.
With FHHIPSVCQRVNGIKVQNGGIVTD the figure was 2; with FHHIPSMCQRVNGIKVQNGGIVTD, 2.03; with FHHIPSGCQRVNGIKVQNGGIVTD, 1.57.
Then FHHIPSYCQRVNGIKVQNGGIVTD, with 1.91.
As to FHHIPSLCQRVNGIKVQNGGIVTD, the protein stability index came to 2.59.
With FHHIPSSCQRVNGIKVQNGGIVTD the figure was 2.31; with FHHIPSHCQRVNGIKVQNGGIVTD, 2.3.
Then FHHIPSDCQRVNGIKVQNGGIVTD, with 2.58.
With FHHIPSICQRVNGIKVQNGGIVTD the figure was 1.45; with FHHIPSACQRVNGIKVQNGGIVTD, 1.39.
On to FHHIPSCCQRVNGIKVQNGGIVTD, for which the protein stability index is 2.21.
With FHHIPSECQRVNGIKVQNGGIVTD, the protein stability index came to 2.32.
Regarding FHHIPSQCQRVNGIKVQNGGIVTD, the protein stability index came out at 1.83.
Take FHQIPSTCQRVNGIKVQNGGIVTD: the protein stability index came to 1.71.
Take FHLIPSTCQRVNGIKVQNGGIVTD: the protein stability index was 1.96.
In the case of FHMIPSTCQRVNGIKVQNGGIVTD, the protein stability index was 2.8.
With FHVIPSTCQRVNGIKVQNGGIVTD the figure was 3.16; with FHTIPSTCQRVNGIKVQNGGIVTD, 2.06; with FHRIPSTCQRVNGIKVQNGGIVTD, 2.53.
As to FHNIPSTCQRVNGIKVQNGGIVTD, the protein stability index is 2.25.
With FHDIPSTCQRVNGIKVQNGGIVTD the figure was 3; with FHFIPSTCQRVNGIKVQNGGIVTD, 1.39; with FHIIPSTCQRVNGIKVQNGGIVTD, 1.59.
Then FHWIPSTCQRVNGIKVQNGGIVTD, with 2.18; and FHKIPSTCQRVNGIKVQNGGIVTD, with 2.79; and FHCIPSTCQRVNGIKVQNGGIVTD, with 1.92.
FHSIPSTCQRVNGIKVQNGGIVTD: the protein stability index came out at 1.33.
For the variant FHPIPSTCQRVNGIKVQNGGIVTD, the protein stability index came out at 2.03.
Then FHYIPSTCQRVNGIKVQNGGIVTD, with 2.11.
Then FHGIPSTCQRVNGIKVQNGGIVTD, with 2.31.
Then FHEIPSTCQRVNGIKVQNGGIVTD, with 2.53.
In the case of FHAIPSTCQRVNGIKVQNGGIVTD, the protein stability index came to 2.22.
Then FHHIPSTCDRVNGIKVQNGGIVTD, with 1.8; and FHHIPSTCPRVNGIKVQNGGIVTD, with 1.81.
As to FHHIPSTCRRVNGIKVQNGGIVTD, the protein stability index turned out to be 1.77.
Regarding FHHIPSTCGRVNGIKVQNGGIVTD, the protein stability index is 1.68.
Then FHHIPSTCHRVNGIKVQNGGIVTD, with 1.78.
Then FHHIPSTCCRVNGIKVQNGGIVTD, with 2.13.
Regarding FHHIPSTCIRVNGIKVQNGGIVTD, the protein stability index was found to be 1.65.
With FHHIPSTCLRVNGIKVQNGGIVTD the figure was 2.92.
Regarding FHHIPSTCNRVNGIKVQNGGIVTD, the protein stability index is 2.08.
Then FHHIPSTCKRVNGIKVQNGGIVTD, with 1.55; and FHHIPSTCFRVNGIKVQNGGIVTD, with 2.35.
Consider FHHIPSTCMRVNGIKVQNGGIVTD, for which the protein stability index came out at 2.27.
With FHHIPSTCERVNGIKVQNGGIVTD the figure was 2.29; with FHHIPSTCARVNGIKVQNGGIVTD, 1.46.
